In this data set the target is T1, PIF4-MBP (phytochrome-interacting factor 4) (Arabidopsis thaliana, UniProt Q8W2F3 1-430).
T1 sequence: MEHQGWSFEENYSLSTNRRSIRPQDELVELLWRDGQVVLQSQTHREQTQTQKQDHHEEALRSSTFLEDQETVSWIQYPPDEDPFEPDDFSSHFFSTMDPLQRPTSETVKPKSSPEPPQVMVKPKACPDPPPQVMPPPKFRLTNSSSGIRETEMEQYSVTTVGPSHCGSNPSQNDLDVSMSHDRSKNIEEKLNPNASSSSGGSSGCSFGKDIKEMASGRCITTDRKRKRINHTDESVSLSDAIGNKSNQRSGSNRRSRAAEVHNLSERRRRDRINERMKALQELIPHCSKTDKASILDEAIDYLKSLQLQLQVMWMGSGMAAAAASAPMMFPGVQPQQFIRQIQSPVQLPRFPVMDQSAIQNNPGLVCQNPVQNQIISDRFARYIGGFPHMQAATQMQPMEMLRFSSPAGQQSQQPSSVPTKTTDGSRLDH
In words: EMSA; 1 nM labeled probe; decreasing amounts of PIF4; unlabeled same-sequence competitor in lane 8; LightShift Chemiluminescent EMSA kit buffer (composition not given), 20 ul, 30 min on ice, 1x TBE polyacrylamide gel. The conditions noted are these: protein: recombinant; tags: MBP; chain copies: 2; label: 3' biotin on sense strand; blunt. On the technique in general: Mobility shift assays separate free from complexed probe on a gel.

B1: miR160b promoter G-box fragment (dsDNA)
DNA 1: AGACACGTGTAGAAATCTTCTAAACCC
DNA 2: GGGTTTAGAAGATTTCTACACGTGTCT
As to B1, the binding result is listed as “binds”.

Values taken from article PMC5862502, “Coordinated regulation of Arabidopsis microRNA biogenesis and red light signaling through Dicer-like 1 and phytochrome-interacting factor 4”.
